In article PMC10464304, “Refined read‐out: The hUHRF1 Tandem‐Tudor domain prefers binding to histone H3 tails containing K4me1 in the context of H3K9me2/3” (Protein Science : A Publication of the Protein Society, 2023):
No end group written: not given here. Me3 = trimethyl (trimethyl-lysine)

T1: GST-fused Tandem-Tudor domain (TTD) of human UHRF1, residues 126-280, wild type (human, UniProt Q96T88 126-280)
T1 construct: Tandem Tudor domain (TTD) of human UHRF1, UniProt Q96T88, residues 126-280; borders as in Rothbart et al., 2012; also called hUHRF1-TTD; UHRF1-TTD; source: E. coli, purified (Glutathione Agarose 4B); not shown: GST, N-terminal, kept
T1 sequence (looked up): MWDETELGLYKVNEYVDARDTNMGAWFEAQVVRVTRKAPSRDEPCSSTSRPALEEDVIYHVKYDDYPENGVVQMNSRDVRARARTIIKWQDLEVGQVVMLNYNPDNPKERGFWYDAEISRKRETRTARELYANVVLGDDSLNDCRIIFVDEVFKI

T2: GST-hUHRF1-TTD (126-280) F278A (human, UniProt Q96T88 126-280, F278A)
T2 construct: Tandem Tudor domain (TTD) of human UHRF1, UniProt Q96T88, residues 126-280; source: E. coli, purified (Glutathione Agarose 4B); not shown: GST, N-terminal, kept
T2 sequence (looked up): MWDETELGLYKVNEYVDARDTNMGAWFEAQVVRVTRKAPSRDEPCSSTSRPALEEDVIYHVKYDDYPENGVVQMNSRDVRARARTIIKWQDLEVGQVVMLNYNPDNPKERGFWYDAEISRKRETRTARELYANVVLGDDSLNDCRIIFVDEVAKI

T3: GST-hUHRF1-TTD (126-280) R207L (human, UniProt Q96T88 126-280, R207L)
T3 construct: Tandem Tudor domain (TTD) of human UHRF1, UniProt Q96T88, residues 126-280; source: E. coli, purified (Glutathione Agarose 4B); not shown: GST, N-terminal, kept
T3 sequence (looked up): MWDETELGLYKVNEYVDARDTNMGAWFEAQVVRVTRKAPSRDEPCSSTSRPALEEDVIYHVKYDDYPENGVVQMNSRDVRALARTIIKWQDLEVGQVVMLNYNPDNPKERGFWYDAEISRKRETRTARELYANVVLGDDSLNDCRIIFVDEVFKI

T4: GST-hUHRF1-TTD (126-280) E153Q (human, UniProt Q96T88 126-280, E153Q)
T4 construct: Tandem Tudor domain (TTD) of human UHRF1, UniProt Q96T88, residues 126-280; source: E. coli, purified (Glutathione Agarose 4B); not shown: GST, N-terminal, kept
T4 sequence (looked up): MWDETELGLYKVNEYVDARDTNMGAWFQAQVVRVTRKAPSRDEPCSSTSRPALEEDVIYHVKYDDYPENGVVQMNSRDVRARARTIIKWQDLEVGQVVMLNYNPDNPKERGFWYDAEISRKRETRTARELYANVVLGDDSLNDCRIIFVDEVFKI

T5: GST-hUHRF1-TTD (126-280) M224A (human, UniProt Q96T88 126-280, M224A)
T5 construct: Tandem Tudor domain (TTD) of human UHRF1, UniProt Q96T88, residues 126-280; source: E. coli, purified (Glutathione Agarose 4B); not shown: GST, N-terminal, kept
T5 sequence (looked up): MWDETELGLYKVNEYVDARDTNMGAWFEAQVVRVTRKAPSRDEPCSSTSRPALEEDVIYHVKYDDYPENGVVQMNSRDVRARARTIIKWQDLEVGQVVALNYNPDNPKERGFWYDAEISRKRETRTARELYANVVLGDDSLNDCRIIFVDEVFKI

T6: GST-hUHRF1-TTD (126-280) E153A (human, UniProt Q96T88 126-280, E153A)
T6 construct: Tandem Tudor domain (TTD) of human UHRF1, UniProt Q96T88, residues 126-280; also called E153A TTD mutant; source: E. coli, purified (Glutathione Agarose 4B); not shown: GST, N-terminal, kept
T6 sequence (looked up): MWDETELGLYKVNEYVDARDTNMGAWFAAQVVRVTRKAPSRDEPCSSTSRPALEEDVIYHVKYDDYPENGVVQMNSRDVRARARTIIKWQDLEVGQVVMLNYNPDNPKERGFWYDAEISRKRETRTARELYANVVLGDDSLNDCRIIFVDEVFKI

T7: GST-hUHRF1-TTD (126-280) R207Q (human, UniProt Q96T88 126-280, R207Q)
T7 construct: Tandem Tudor domain (TTD) of human UHRF1, UniProt Q96T88, residues 126-280; source: E. coli, purified (Glutathione Agarose 4B); not shown: GST, N-terminal, kept
T7 sequence (looked up): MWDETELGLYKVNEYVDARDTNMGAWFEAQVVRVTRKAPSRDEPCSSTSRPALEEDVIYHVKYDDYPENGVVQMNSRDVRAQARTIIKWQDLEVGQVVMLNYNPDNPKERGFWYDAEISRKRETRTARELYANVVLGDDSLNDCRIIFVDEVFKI

T8: GST-hUHRF1-TTD (126-280) D142E (human, UniProt Q96T88 126-280, D142E)
T8 construct: Tandem Tudor domain (TTD) of human UHRF1, UniProt Q96T88, residues 126-280; source: E. coli, purified (Glutathione Agarose 4B); not shown: GST, N-terminal, kept
T8 sequence (looked up): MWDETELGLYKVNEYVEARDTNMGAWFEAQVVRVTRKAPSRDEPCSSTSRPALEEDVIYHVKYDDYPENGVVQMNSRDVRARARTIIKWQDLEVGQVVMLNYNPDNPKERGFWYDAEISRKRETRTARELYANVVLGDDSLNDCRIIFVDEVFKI

T9: GST-hUHRF1-TTD (126-280) E153D (human, UniProt Q96T88 126-280, E153D)
T9 construct: Tandem Tudor domain (TTD) of human UHRF1, UniProt Q96T88, residues 126-280; also called TTD E153D; source: E. coli, purified (Glutathione Agarose 4B); not shown: GST, N-terminal, kept
T9 sequence (looked up): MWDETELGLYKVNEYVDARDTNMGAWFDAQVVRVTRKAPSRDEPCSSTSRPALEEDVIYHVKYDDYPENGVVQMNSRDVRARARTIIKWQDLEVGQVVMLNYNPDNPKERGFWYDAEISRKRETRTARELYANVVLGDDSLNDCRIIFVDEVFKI

T10: GST-hUHRF1-TTD (126-280) D142A (human, UniProt Q96T88 126-280, D142A)
T10 construct: Tandem Tudor domain (TTD) of human UHRF1, UniProt Q96T88, residues 126-280; also called TTD D142A mutant; source: E. coli, purified (Glutathione Agarose 4B); not shown: GST, N-terminal, kept
T10 sequence (looked up): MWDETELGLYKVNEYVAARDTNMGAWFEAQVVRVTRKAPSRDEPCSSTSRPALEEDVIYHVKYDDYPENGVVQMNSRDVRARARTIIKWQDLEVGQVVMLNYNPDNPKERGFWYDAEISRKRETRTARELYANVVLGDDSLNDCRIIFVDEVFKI

T11: GST-hUHRF1-TTD (126-280) D142N (human, UniProt Q96T88 126-280, D142N)
T11 construct: Tandem Tudor domain (TTD) of human UHRF1, UniProt Q96T88, residues 126-280; source: E. coli, purified (Glutathione Agarose 4B); not shown: GST, N-terminal, kept
T11 sequence (looked up): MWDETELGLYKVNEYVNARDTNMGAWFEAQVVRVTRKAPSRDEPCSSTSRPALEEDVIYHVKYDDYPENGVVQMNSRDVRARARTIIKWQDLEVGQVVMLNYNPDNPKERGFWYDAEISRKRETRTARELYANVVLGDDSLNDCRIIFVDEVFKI

T12: GST-hUHRF1-TTD (126-280) R207E (human, UniProt Q96T88 126-280, R207E)
T12 construct: Tandem Tudor domain (TTD) of human UHRF1, UniProt Q96T88, residues 126-280; also called TTD R207E; source: E. coli, purified (Glutathione Agarose 4B); not shown: GST, N-terminal, kept
T12 sequence (looked up): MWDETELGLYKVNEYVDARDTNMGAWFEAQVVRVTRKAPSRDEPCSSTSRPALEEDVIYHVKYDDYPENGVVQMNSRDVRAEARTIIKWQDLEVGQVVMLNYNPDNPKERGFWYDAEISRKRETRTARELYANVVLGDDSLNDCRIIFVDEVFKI

T13: GST-hUHRF1-TTD (126-280) R207A (human, UniProt Q96T88 126-280, R207A)
T13 construct: Tandem Tudor domain (TTD) of human UHRF1, UniProt Q96T88, residues 126-280; source: E. coli, purified (Glutathione Agarose 4B); not shown: GST, N-terminal, kept
T13 sequence (looked up): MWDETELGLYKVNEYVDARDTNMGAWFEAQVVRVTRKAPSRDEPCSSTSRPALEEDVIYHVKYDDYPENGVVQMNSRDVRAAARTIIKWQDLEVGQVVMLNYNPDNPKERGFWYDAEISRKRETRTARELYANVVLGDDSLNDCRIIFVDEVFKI

T14: GST-hUHRF1-TTD (126-280) R207H (human, UniProt Q96T88 126-280, R207H)
T14 construct: Tandem Tudor domain (TTD) of human UHRF1, UniProt Q96T88, residues 126-280; source: E. coli, purified (Glutathione Agarose 4B); not shown: GST, N-terminal, kept
T14 sequence (looked up): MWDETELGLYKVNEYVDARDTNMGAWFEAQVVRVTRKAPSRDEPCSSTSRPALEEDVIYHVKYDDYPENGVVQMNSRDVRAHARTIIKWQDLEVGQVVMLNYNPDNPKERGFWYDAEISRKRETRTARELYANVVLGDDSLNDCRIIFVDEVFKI


Legend:
Assay in all cases: fluorescence polarisation; fluorescence anisotropy titration; 100 nM FITC-labeled peptide in the cuvette, protein added stepwise; 23°C; 100 mM KCl, 20 mM HEPES pH 7.5, 10% v/v glycerol
Conditions in all cases: both partners purified
[1] = target: T1, GST-fused Tandem-Tudor domain (TTD) of …
[2] = target: T2, GST-hUHRF1-TTD (126-280) F278A
[3] = target: T3, GST-hUHRF1-TTD (126-280) R207L
[4] = target: T4, GST-hUHRF1-TTD (126-280) E153Q
[5] = target: T5, GST-hUHRF1-TTD (126-280) M224A
[6] = target: T6, GST-hUHRF1-TTD (126-280) E153A
[7] = target: T7, GST-hUHRF1-TTD (126-280) R207Q
[8] = target: T8, GST-hUHRF1-TTD (126-280) D142E
[9] = target: T9, GST-hUHRF1-TTD (126-280) E153D
[10] = target: T10, GST-hUHRF1-TTD (126-280) D142A
[11] = target: T11, GST-hUHRF1-TTD (126-280) D142N
[12] = target: T12, GST-hUHRF1-TTD (126-280) R207E
[13] = target: T13, GST-hUHRF1-TTD (126-280) R207A
[14] = target: T14, GST-hUHRF1-TTD (126-280) R207H

Kd [1] | Kd [2] | Kd [3] | Kd [4] | Kd [5] | Kd [6] | Kd [7] | Kd [8] | Kd [9] | Kd [10] | Kd [11] | Kd [12] | Kd [13] | Kd [14] | Binder
240 nM | 3900 nM | 440 nM | 250 nM | 430 nM | 2 nM | 390 nM | 580 nM | 50 nM | 2700 nM | 2 nM | 270 nM | 370 nM | 460 nM | ARTK(Me)QTARK(Me3)STGGKAPRKQ (peptide, UniProt P68431 2-20, looked up, also: FITC-labeled (position not given here), histone H3 N-terminal tail, residues 1-19; also called H3K4me1-K9me3; H3 K4me1-K9me3) [FITC-labeled H3(1-19) peptide with K4me1 and K9me3]
 |  | 900 nM |  |  |  |  |  |  |  |  |  | 900 nM |  | ARTKQTARKSTGGKAPRKQ (peptide, UniProt P68431 2-20, looked up, K9me3 (trimethyl-lysine at 9); FITC-labeled, histone H3 N-terminal tail, residues 1-19; also called H3K9me3; H3 K9me3) [FITC-labeled H3(1-19) peptide with K9me3]
